These results are taken from US7897573B2, “Selective VPAC2 receptor peptide agonists” (priority 2005, dated 2011).

One series deals with T1, Human VPAC1 Receptor (Homo sapiens, UniProt P32241).
T1 construct: expressed in transfected cells
T1 sequence (P32241 31-457): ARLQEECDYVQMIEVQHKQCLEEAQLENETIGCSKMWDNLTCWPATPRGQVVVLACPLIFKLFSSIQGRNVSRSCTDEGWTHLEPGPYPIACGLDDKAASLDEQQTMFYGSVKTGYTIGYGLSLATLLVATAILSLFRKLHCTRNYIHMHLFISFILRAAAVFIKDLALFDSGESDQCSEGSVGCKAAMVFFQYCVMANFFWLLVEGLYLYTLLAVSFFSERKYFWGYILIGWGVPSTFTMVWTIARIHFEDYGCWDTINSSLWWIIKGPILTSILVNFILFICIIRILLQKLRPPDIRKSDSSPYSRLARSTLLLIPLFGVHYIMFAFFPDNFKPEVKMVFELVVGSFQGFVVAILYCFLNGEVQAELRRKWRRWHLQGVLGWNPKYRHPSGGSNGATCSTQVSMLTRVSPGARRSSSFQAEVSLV
Put plainly: Filter binding assay, 125I-labeled VIP, membranes of cells transiently transfected with human VPAC1. Particulars: 125I-labeled VIP tracer. As to the method:
(§1) For this assay, the solutions and equipment include:
(§2) Presoak solution: 0.5% Polyethyleneamine in Aqua dest
(§3) Buffer for flushing filter plates: 25 mM HEPES pH 7.4
(§4) Blocking buffer: 25 mM HEPES pH 7.4; 0.2% protease free BSA
(§5) Assay buffer: 25 mM HEPES pH 7.4; 0.5% protease free BSA
(§6) Dilution and assay plate: PS-Microplate, U form
(§7) Filtration Plate Multiscreen FB Opaque Plate; […] Type B Glasfiber filter
(§8) In order to prepare the filter plates, the presoak solution is aspirated by vacuum filtration. The plates are flushed twice with 200 μL flush buffer. 200 μL blocking buffer is added to the filter plate. The filter plate is then incubated with 200 μL presoak solution for 1 hour at room temperature.
(§9) The assay plate is filled with 25 μL assay buffer, 25 μL membranes (2.5 μg) suspended in assay buffer, 25 μL agonist in assay buffer, and 25 μL tracer (about 40000 cpm) in assay buffer. The filled plate is incubated for 1 hour with shaking.
(§10) The transfer from assay plate to filter plate is conducted. The blocking buffer is aspirated by vacuum filtration and washed two times with flush buffer. 90 μL is transferred from the assay plate to the filter plate. The 90 μL transferred from assay plate is aspirated and washed three times with 200 μL flush buffer. The plastic support is removed. It is dried for 1 hour at 60° C. 30 μL Microscint is added. The count is performed.

The target of a further series is T2, Human PAC1 Receptor (Homo sapiens, UniProt P41586).
T2 construct: expressed in transfected cells
T2 sequence (P41586 21-468): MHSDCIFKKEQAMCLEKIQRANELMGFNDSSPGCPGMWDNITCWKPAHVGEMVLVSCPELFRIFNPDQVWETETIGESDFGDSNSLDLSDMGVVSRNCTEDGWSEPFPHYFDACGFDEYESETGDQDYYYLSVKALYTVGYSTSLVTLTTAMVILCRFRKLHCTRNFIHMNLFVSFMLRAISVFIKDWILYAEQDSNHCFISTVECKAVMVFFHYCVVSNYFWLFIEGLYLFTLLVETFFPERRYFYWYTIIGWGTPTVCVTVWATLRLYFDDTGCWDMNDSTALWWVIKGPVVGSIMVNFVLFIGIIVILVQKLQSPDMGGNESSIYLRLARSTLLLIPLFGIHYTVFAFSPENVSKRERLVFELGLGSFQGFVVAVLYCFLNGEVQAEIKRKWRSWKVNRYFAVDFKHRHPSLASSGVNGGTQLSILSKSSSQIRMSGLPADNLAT
Put plainly: Filter binding assay, 125I-labeled PACAP-27, membranes of cells transiently transfected with human PAC1. Particulars: 125I-labeled PACAP-27 tracer. The protocol: as §1, §2, §3, §4, §5, §6, §7, §8, §9, §10

Series [1] can be described thus: Rat serum stability study (DiscoveRx cAMP read-out on CHO-VPAC2 cells). The settings on record: EC50, 4° C./EC50, 37° C., values >100% may represent release of intact peptide from the PEG conjugate; for 72 h stab (%): 72 h in rat serum at 37° C.; for 24 h stab (%): 24 h in rat serum at 37° C. As to the method:
In order to determine the stability of VPAC2 receptor peptide agonists in rat serum, CHO-VPAC2 cells clone #6 (96 well plates/50,000 cells/well and 1 day culture), PBS 1× (Gibco), the peptides for the analysis in a 100 μM stock solution, rat serum from a sacrificed normal Wistar rat, aprotinin, and a DiscoveRx assay kit are obtained. The rat serum is stored at 4° C. until use and is used within two weeks.
The aliquot is stored with aprotinin at 4° C. The aliquot is stored without aprotinin at 37° C. The aliquots are incubated for 24 or 72 hours.
On Day 1, after incubation of the aliquots prepared on day 0 for 24 or 72 hours, an incubation buffer containing PBS+1.3 mM CaCl2, 1.2 mM MgCl2, 2 mM glucose, and 0.25 mM IBMX is prepared. A plate with 11 serial 5× dilutions of peptide for the 4° C. and 37° C. aliquot is prepared for each peptide studied. […] The plate(s) are washed with cells twice in incubation buffer. The plates are allowed to hold 50 μL incubation media per well for 15 minutes. 50 μL solution per well is transferred to the cells from the plate prepared with 11 serial 5× dilutions of peptide for the 4° C. and 37° C. aliquot for each peptide studied, using the maximal concentrations that are indicated by the primary screen, in duplicate. This step dilutes the peptide concentration by a factor of two. The cells are incubated at room temperature for 30 minutes. The supernatant is removed. 40 μL/well of the DiscoveRx antibody/extraction buffer is added. The cells are incubated on the shaker (300 rpm) for 1 hour. Normal procedure with the DiscoveRx kit is followed. cAMP standards are included in column 12. EC50 values are determined from the cAMP assay data.

The nature of series [2]: Pharmacokinetic profiles of PEGylated peptides in Fisher 344 rats. Type of series: in vivo, rat. Particulars: 100 μg agonist/kg, plasma RIA, mean N = 3. The protocol: Pharmacokinetic profiles of PEGylated peptides. Healthy Fisher 344 rats (3 animals per group) were injected with 100 μg agonist/kg (agonist amount based on peptide content and dissolved in PBS buffer). Blood samples were drawn 3, 12, 24, 48, 72, 96 and 168 hour post dosing and the peptide content in plasma was analysed by a radio-immunoassay (RIA) directed against the N-terminus of the peptide. PK parameters were then calculated using a model-independent method (WinNonlin Pro, Pharsight Corp., Mountain View, Calif., USA).

*1 amine or outer side, *2 acyl side, *3 side chain or, on linkers, in order; H or OH if unused. Primed or numbered codes have the meaning given here. [ ]: non-standard residue; d: D form. The star is where a group is joined. Tyr(OMe)(3) = Tyr, methoxy (Y(OMe)), COc1ccc(C[C@H](N[*:1])C(=O)[*:2])cc1; WPEG40K = not defined here; Orn = NCCC[C@H](N)C(=O)O; Abu = CC[C@H](N)C(=O)O; Hexanoyl = CCCCCC(=O)*; Aib = CC(C)(N)C(=O)O

“C6-HSDAVFTEQY(OMe)TOrnLRAibQLAAbuAibOrnY(OMe)LQSIOrnOrnGGPSSGAPPPC(PEG20K)C(PEG20K)-NH2 (HSDAVFTEQYTXLRXQLAXXXYLQSIXXGGPSSGAPPPCC; C6 acyl, non-natural residues, two PEG20K, C-terminal amide; Synthetic sequence PEGylated VPAC2 receptor agonist) [Agonist P582]”: the IC50 with Human VPAC1 Receptor and with Human PAC1 Receptor was above 25000 nM throughout.

Turning to “C6-HSDAVFTEQY(OMe)TOrnLRAibQLAAbuAibOrnYAibQSIOrnOrnGGPSSGAPPPC(PEG20K)C(PEG20K)-NH2 (HSDAVFTEQYTXLRXQLAXXXYXQSIXXGGPSSGAPPPCC; C6 acyl, two PEG20K, C-terminal amide; Synthetic sequence PEGylated VPAC2 receptor agonist) [Agonist P521]”, the “72 h stab (%)” value in series [1] is on record as 294%. Moreover, in series [2], the AUC0-last was found to be 7633 ng·h/mL, the Cl/F was 0.217 mL/min/kg, the Cmax was determined as 233 ng/mL and the time of peak concentration (Tmax) was determined as 12 h. The substance further yielded a T½ in series [2] of 19 h.

“C6-HSDAVFTEQY(OMe)TOrnLRAibQLAAbuAibOrnYLQAibIOrnC(PEG20K)OrnGGPSSGAPPPC(PEG20K)-NH2 (HSDAVFTEQYTXLRXQLAXXXYLQXIXCXGGPSSGAPPPC; C6 acyl, two PEG20K, C-terminal amide; Synthetic sequence PEGylated VPAC2 receptor agonist) [Agonist P553]”: the IC50 in the series with Human VPAC1 Receptor and with Human PAC1 Receptor was above 25000 nM in each case.

Regarding “C6-HSDAVFTEQY(OMe)TOrnLRAibQLAAbuAibOrnYLQAibIOrnC(PEG40K)OrnGGPSSGAPPPS-NH2 (HSDAVFTEQYTXLRXQLAXXXYLQXIXCXGGPSSGAPPPS; C6 acyl, PEG40K on Cys, C-terminal amide; Synthetic sequence PEGylated VPAC2 receptor agonist) [Agonist P537]”, the IC50 with Human VPAC1 Receptor and with Human PAC1 Receptor was above 25000 nM in each case.

As for “C6-HSDAVFTEQY(OMe)TOrnLRAibQLAAbuAibOrnYLQAibIOrnOrnC(PEG20K)GGPSSGAPPPC(PEG20K)-NH2 (HSDAVFTEQYTXLRXQLAXXXYLQXIXXCGGPSSGAPPPC; C6 acyl, non-natural residues, two PEG20K, C-terminal amide; Synthetic sequence PEGylated VPAC2 receptor agonist) [Agonist P580]”, the IC50 with Human VPAC1 Receptor and in the series with Human PAC1 Receptor was above 25000 nM each time.

For “C6-HSDAVFTEQY(OMe)TOrnLRAibQLAAbuAibOrnYLQSIOrnC(PEG40K)OrnGGPSSGAPPPS-NH2 (HSDAVFTEQYTXLRXQLAXXXYLQSIXCXGGPSSGAPPPS; C6 acyl, PEG40K on Cys, C-terminal amide; Synthetic sequence PEGylated VPAC2 receptor agonist) [Agonist P539]”, in series [1], the “24 h stab (%)” value is 123%. Moreover, in series [2], the AUC0-last turned out to be 4013 ng·h/mL, the Cl/F was determined as 0.417 mL/min/kg, the Cmax is 102 ng/mL and the Tmax is listed as 24 h. The substance also showed a T½ in series [2] of 15 h.

As to “C6-HSDAVFTEQY(OMe)TOrnLRAibQLAAbuAibOrnYLQSIOrnOrnC(PEG20K)GGPSSGAPPPC(PEG20K)-NH2 (HSDAVFTEQYTXLRXQLAXXXYLQSIXXCGGPSSGAPPPC; C6 acyl, two PEG20K, C-terminal amide; Synthetic sequence PEGylated VPAC2 receptor agonist) [Agonist P572]”, the IC50 with Human VPAC1 Receptor and with Human PAC1 Receptor was above 25000 nM throughout.

As for “C6-HSDAVFTEQY(OMe)TOrnLRAibQLAbuAAibOrnYLQSIOrnOrnGGPSSGAPPPC(PEG20K)C(PEG20K)-NH2 (HSDAVFTEQYTXLRXQLXAXXYLQSIXXGGPSSGAPPPCC; C6 acyl, non-natural residues, two PEG20K, C-terminal amide; Synthetic sequence PEGylated VPAC2 receptor agonist) [Agonist P590]”, the IC50 with Human VPAC1 Receptor and with Human PAC1 Receptor was above 25000 nM throughout.

With “C6-HSDAVFTEQY(OMe)TOrnLRAibQVAAAibK(CO(CH2)2SPEG20K)YLQSIOrnOrnGGPSSGAPPPS-NH2 (HSDAVFTEQYTXLRXQVAAXXYLQSIXXGGPSSGAPPPS; C6 acyl; PEG20K; non-natural residues; amide; Synthetic sequence PEGylated VPAC2 receptor peptide agonist) [Agonist P473]”, the “24 h stab (%)” value in series [1] is recorded as 86%. Also, the IC50 with Human VPAC1 Receptor is above 25000 nM.

For the substance “C6-HSDAVFTEQY(OMe)TOrnLRC(PEG40K)QVAAAibOrnYLQSIOrnOrnGGPSSGAPPPS-NH2 (HSDAVFTEQYTXLRCQVAAXXYLQSIXXGGPSSGAPPPS; N-terminal C6 acyl, PEG40K on Cys, C-terminal amide; Synthetic sequence PEGylated VPAC2 receptor agonist) [Agonist P483]”, in series [1], the “24 h stab (%)” value is 22%. The substance further showed an IC50 with Human VPAC1 Receptor above 25000 nM.

With “C6-HSDAVFTEQY(OMe)TOrnLRK(WPEG40K)QLAAbuAibOrnYLQAibIOrnOrnGGPSSGAPPPS-NH2 (Hexanoyl-HSDAVFTEQ[Tyr(OMe)(3)]T[Orn]LRK(WPEG40K)QLA[Abu][Aib][Orn]YLQ[Aib]I[Orn][Orn]GGPSSGAPPPS-NH2; reading uncertain) [Agonist P557]”, the “24 h stab (%)” value in series [1] came out at 131%.

Turning to “C6-HSDAVFTEQY(OMe)TOrnLRK(WPEG40K)QVAAAibOrnYLQSIOrnOrnGGPSSGAPPPS-NH2 (HSDAVFTEQYTXLRXQVAAXXYLQSIXXGGPSSGAPPPS; C6 acyl, PEG40K on Lys, C-terminal amide; Synthetic sequence PEGylated VPAC2 receptor agonist) [Agonist P529]”, the “72 h stab (%)” value in series [1] came to 119%.

As for “C6-HSDAVFTEQY(OMe)TRAibRAibQLAAAibOrnY(OMe)LQSIKAibOrnGGPSSGAPPPC(PEG40K)-NH2 (HSDAVFTEQYTRXRXQLAAXXYLQSIKXXGGPSSGAPPPC; C6 acyl; PEG40K; non-natural residues; amide; Synthetic sequence PEGylated VPAC2 receptor peptide agonist) [Agonist P417]”, the “24 h stab (%)” value in series [1] is 265%. In the series with Human VPAC1 Receptor, this substance returned an IC50 above 25000 nM.

As a reminder, the IC50 is the concentration that inhibits the measured activity by half. A lower IC50 goes with greater potency in that assay. A word on the Cmax: it is the peak of the concentration-time curve. A word on the Tmax: it is the time from dosing to the highest level.
